In assay [1] the target is T1, recombinant human TfR (r human TfR: Sino Biological Inc.) (human, UniProt P02786 89-760).
T1 construct: Bought product; also called r human TfR-ECD (Histag); hTfR; not shown: histidine tag attached to the N-terminus
Put plainly: BLI (Octet RED96), method of Example 7, His-tagged TfR ECD on Ni-NTA sensor. As for the experimental part: (§1) Each of the antibodies (anti-hTfR antibody Nos. 1 to 14) purified above was subjected to 2-fold dilution steps with HBS-P+(10 mM HEPES containing 150 mM NaCl, 50 μM EDTA and 0.05% Surfactant P20) to prepare antibody solutions of 7 different concentrations, 0.78125 to 50 nM (0.117 to 7.5 μg/mL). These antibody solutions were used as the sample solutions. The r human and r monkey TfRs were respectively diluted with HBS-P+ to prepare 25 μg/mL solutions, which were used as r human TfR-ECD (Histag) solution and r monkey TfR-ECD (Histag) solution, respectively.
(§2) Each of the sample solutions prepared above by 2-fold dilution steps was added, 200 μL/well, to a 96-well plate, black (Greiner Bio-One Inc.). Each of the r human TfR-ECD (Histag) solution and the r monkey TfR-ECD (Histag) solutions prepared above was added, 200 μL/well, to predetermined wells. To respective wells for baseline, dissociation and washing were added HBS-P+, 200 μL/well. To wells for regeneration were added 10 mM Glycine-HCl, pH 1.7, 200 μL/well. To wells for activation was added 0.5 mM NiCl₂ solution, 200 μL/well. The plate and biosensor (Biosensor/Ni-NTA: ForteBio Inc., a division of Pall Corporation) were set in the prescribed positions of Octet RED96. […] The measurement was performed at 25 to 30° C.
(§3) The affinity of the humanized anti-hTfR antibodies obtained in Example 13 to human and monkey TfRs was measured by the method described in Example 7.

Assay [2] addresses T2, recombinant monkey TfR (r monkey TfR: Sino Biological Inc.) (cynomolgus monkey (Macaca fascicularis), UniProt Q5RDH6 89-760 (Pongo abelii entry)).
T2 construct: Bought product; also called r monkey TfR-ECD (Histag); cynomolgus monkey TfR; not shown: histidine tag attached to the N-terminus
T2 chain: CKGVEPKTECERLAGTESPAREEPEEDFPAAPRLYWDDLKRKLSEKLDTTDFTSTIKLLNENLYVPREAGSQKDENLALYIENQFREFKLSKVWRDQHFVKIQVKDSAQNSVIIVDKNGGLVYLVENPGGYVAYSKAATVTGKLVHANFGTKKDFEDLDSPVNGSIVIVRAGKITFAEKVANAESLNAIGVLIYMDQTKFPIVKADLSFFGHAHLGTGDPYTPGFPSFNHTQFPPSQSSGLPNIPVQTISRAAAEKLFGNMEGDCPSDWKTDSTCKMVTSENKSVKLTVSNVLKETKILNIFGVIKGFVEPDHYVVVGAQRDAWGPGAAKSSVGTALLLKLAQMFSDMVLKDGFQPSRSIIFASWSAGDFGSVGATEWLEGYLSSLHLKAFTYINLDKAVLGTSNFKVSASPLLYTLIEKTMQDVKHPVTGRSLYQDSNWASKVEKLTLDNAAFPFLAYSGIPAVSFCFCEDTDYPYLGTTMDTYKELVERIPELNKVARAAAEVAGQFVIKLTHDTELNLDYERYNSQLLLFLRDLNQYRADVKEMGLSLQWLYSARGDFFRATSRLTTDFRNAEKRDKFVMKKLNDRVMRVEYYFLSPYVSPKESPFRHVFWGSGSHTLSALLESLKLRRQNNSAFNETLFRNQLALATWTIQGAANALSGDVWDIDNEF
The description is as above. The method, then: as §1, §2, §3

The target of assay [3] is human TrkB (GenBank Acc. No. NP_001018074.1) expressed in CHO cells (human, UniProt Q16620 32-822). Nature of the assay: cell-based or functional assay.
Assay [4] addresses T1, recombinant human TfR (r human TfR: …). Nature of the assay: BLI (Octet RED96), His-tagged TfR ECD loaded on Ni-NTA sensor, antibody as analyte. The method, then:
(§4) By measuring the variations of this shift between the interfering waves, determination of the number of the molecules bound to the layer of the biomolecules immobilized to the sensor tip surface and kinetic analysis of it can be performed in real time. The measurement was performed according generally to the operating manual attached to Octet RED96. As a human TfR, a recombinant human TfR (r human TfR: Sino Biological Inc.) was used, which had the amino acid sequence of the hTfR extracellular region, i.e., the cysteine residue at the position 89th from the N-terminal side to the phenylalanine at the C-terminus, of the amino acid sequence set forth as SEQ ID NO:1, with a histidine tag attached to the N-terminus. As a monkey TfR, a recombinant monkey TfR (r monkey TfR: Sino Biological Inc.) was used, which had the amino acid sequence of the cynomolgus monkey TfR extracellular region, i.e., the cysteine residue at the position 89th from the N-terminal side to the phenylalanine at the C-terminus, of the amino acid sequence set forth as SEQ ID NO:2, with a histidine tag attached to the N-terminus.
as §1
(§5) Each of the sample solutions prepared above by 2-fold dilution steps was added, 200 μL/well, to a 96-well plate, black (Greiner Bio-One Inc.). Each of the r human TfR-ECD (Histag) solution and the r monkey TfR-ECD (Histag) solutions prepared above was added, 200 μL/well, to predetermined wells. To respective wells for baseline, dissociation and washing were added HBS-P+, 200 μL/well. To wells for regeneration were added 10 mM Glycine-HCl, pH 1.7, 200 μL/well. To wells for activation was added 0.5 mM NiCl₂ solution, 200 μL/well. The plate and biosensor (Biosensor/Ni-NTA: ForteBio Inc., a division of Pall Corporation) were set in the prescribed positions of Octet RED96.

Assay [5] deals with T2, recombinant monkey TfR (r monkey TfR: …). The assay is described as above. As for the experimental part: as §4, §1, §5

Residue numbers refer to the chain shown, from its start. A value given as a limit tells only on which side of the number the result lay.

human TrkB (GenBank Acc. No. NP_001018074.1) expressed in CHO cells, sequence (Q16620 32-822): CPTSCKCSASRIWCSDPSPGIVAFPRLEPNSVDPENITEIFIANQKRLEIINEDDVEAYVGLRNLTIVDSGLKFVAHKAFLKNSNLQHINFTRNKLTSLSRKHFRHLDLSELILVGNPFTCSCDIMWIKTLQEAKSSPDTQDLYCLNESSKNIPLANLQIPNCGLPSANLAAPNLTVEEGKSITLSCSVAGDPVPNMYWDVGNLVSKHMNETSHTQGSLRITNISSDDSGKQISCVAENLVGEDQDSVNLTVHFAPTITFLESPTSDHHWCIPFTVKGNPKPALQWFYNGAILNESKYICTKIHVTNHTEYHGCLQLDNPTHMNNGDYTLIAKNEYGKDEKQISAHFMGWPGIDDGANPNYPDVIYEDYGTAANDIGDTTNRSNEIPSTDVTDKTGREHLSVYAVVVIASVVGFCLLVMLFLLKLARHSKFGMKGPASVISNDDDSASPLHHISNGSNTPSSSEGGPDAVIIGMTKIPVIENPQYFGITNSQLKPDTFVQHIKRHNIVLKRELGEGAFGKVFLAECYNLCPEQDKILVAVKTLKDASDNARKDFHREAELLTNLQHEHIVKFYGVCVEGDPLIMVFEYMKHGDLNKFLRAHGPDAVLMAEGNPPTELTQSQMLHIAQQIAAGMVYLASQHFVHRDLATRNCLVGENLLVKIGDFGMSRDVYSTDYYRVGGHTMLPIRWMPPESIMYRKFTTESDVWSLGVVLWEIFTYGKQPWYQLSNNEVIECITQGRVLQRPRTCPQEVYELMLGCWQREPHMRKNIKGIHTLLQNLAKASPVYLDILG

B1: humanized anti-hTfR antibody No. 2 (antibody, human IgG1, kappa, V domains shown)
VH: QVQLVQSGAEVKKPGASVKVSCKASGYTFTDYVMHWVRQAPGQGLEWIGVISTYYGHGSYNQRFKGRATMTVDKSISTAYMELVRLRSDDTAVYYCVRGGYGSSSLAGNFDVWGQGTTVTVSS
VL: EIVLTQSPDFQSVTPKEKVTITCRASQSISNNLQWYQQKPDQSPKLLIKYASQSISGIPSRFSGSGSGTDFTLTINSLEAEDAATYLCQQSNSWPRTFGQGTKVEIKR
notes: IgG1; expressed in CHO-K1, purified on Protein A
For the molecule B1, in assay [1], the Kd was less than 0.001 nM, the off-rate constant (koff) is less than 1e-07 s⁻¹ and the kon came out at 197000 M⁻¹ s⁻¹. In addition, in assay [2], the Kd is 0.0755 nM, the off-rate (koff) is 3.67e-05 s⁻¹ and the on-rate constant (kon) is 487000 M⁻¹ s⁻¹.

B2: humanized anti-hTfR antibody No. 1 (antibody, human IgG1, kappa, V domains shown)
VH: EVQLVESGGGLVQPGGSLRLSCAASGLTFSNYGMSWVRQAPGKGLELVANINTNGGSTYYPDSVKGRFTISRDNAKNSLYLQMNSLRAEDTAVYYCTNNRYDEDYWGQGTLVTVSS
VL: DIQVTQSPSFLSASVGDRVTITCKASQDVNSAVAWFQQKPGKAPKLLIYWTSTRHTGVPDRFSGSGSGTVYTLTISSLQPEDFATYYCQQHYSTPRTFGGGTKVEIKR
notes: as for B1
Regarding B2, in assay [1], the Kd was less than 0.001 nM, the koff is less than 1e-07 s⁻¹ and the kon came to 393000 M⁻¹ s⁻¹. In addition, in assay [2], the Kd is less than 0.001 nM, the koff is less than 1e-07 s⁻¹ and the kon is 253000 M⁻¹ s⁻¹.

B3: hBDNF-anti-hTfR antibody 5 (other)
chain: HSDPARRGELSVCDSISEWVTAADKKTAVDMSGGTVTVLEKVPVSKGQLKQYFYETKCNPMGYTKEGCRGIDKRHWNSQCRTTQSYVRALTMDSKKRIGWRFIRIDTSCVCTLTIKRGRGSGGGGSGGGGSGGGGSGGGGSGGGGSEVQLVQSGAEVKKPGESLKISCKGSGYSFTNYWLGWVRQMPGKGLEWMGDIYPGGDYPTYSEKFKVQVTISADKSISTAYLQWSSLKASDTAMYYCARSGNYDEVAYWGQGTLVTVSSGGGGSGGGGSGGGGSDIVMTQTPLSLSVTPGQPASISCRSSQSLVHSNGNTYLHWYLQKPGQSPQLLIYKVSNRFSGVPDRFSGSGSGTDFTLKISRVEAEDVGVYYCSQSTHVPWTFGQGTKVEIK
Turning to B3, the “BDNF activity (TrkB agonistic EC50, nmol/L)” value in assay [3] was found to be 0.092 nmol/L.

B4: anti-hTfR antibody No. 14 (antibody, V domains shown)
VH: EVQLQESGPELLKPGASVKMSCKASGYAFTGYVIHWVKQKPGQGLEWIGFLNPHKDDSEYNEKFRGKATLTSDKSSSTAYMDLSSLTSEDSAVYYCARGYYYYSMDYWGQGTSVTVSS
VL: DIVLTQTPVIMSAYPGEKVTLTCSASSNINSIHWYQQKPGTSPKRWIYDTSNLASGVPARFSGSGSGTSYSLTISSMEAEDAASYYCHQRSGYPFTFGSGTKLEIK
notes: Mouse hybridoma antibody purified on Protein G; also called mouse anti-hTfR antibody No. 14; product of Clone 14 line
As for B4, in assay [4], the Kd was less than 0.001 nM, the koff is less than 1e-07 s⁻¹ and the kon came to 961000 M⁻¹ s⁻¹. Besides, in assay [5], the Kd amounted to 0.0516 nM, the off-rate (koff) is 3.61e-05 s⁻¹ and the kon was determined as 700000 M⁻¹ s⁻¹.

B5: humanized anti-hTfR antibody No. 3-2 (antibody, human IgG1, kappa)
heavy: not shown
light: DIVMTQSPLSLPVTPGEPASISCRSSQSLVHSNGNTYLHWYLQKPGQSPQLLIYKVSNRFSGVPDRFSGSGSGTDFTLKISRVEAEDVGVYYCSQSTHVPWTFGQGTKVEIKRTVAAPSVFIFPPSDEQLKSGTASVVCLLNNFYPREAKVQWKVDNALQSGNSQESVTEQDSKDSTYSLSSTLTLSKADYEKHKVYACEVTHQGLSSPVTKSFNRGEC
notes: IgG1
With B5, in assay [1], the Kd came to 0.0239 nM, the koff stood at 1.45e-05 s⁻¹ and the association rate constant (kon) was 606000 M⁻¹ s⁻¹. For the same molecule, in assay [2], the Kd came to 1.77 nM, the koff is 0.000876 s⁻¹ and the kon was determined as 495000 M⁻¹ s⁻¹.

B6: humanized anti-hTfR antibody No. 3-3 (antibody, human IgG1, kappa)
heavy: not shown
light: B5 light with S7T, K108R, V109L
notes: IgG1
With B6, in assay [1], the Kd stood at 0.0209 nM, the koff is 1.25e-05 s⁻¹ and the kon was 600000 M⁻¹ s⁻¹. In addition, in assay [2], the equilibrium dissociation constant (Kd) is 1.91 nM, the koff amounted to 0.000932 s⁻¹ and the on-rate constant (kon) amounted to 488000 M⁻¹ s⁻¹.

B7: humanized anti-hTfR antibody No. 3-4 (antibody, human IgG1, kappa, V domains shown)
VH: EVQLVQSGAEVKKPGESLKISCKGSGYSFTNYWLGWVRQMPGKGLEWMGDIYPGGDYPTYSEKFKVQVTISADKSISTAYLQWSSLKASDTAMYYCARSGNYDEVAYWGQGTLVTVSS
VL: DIVMTQTPLSLSVTPGQPASISCRSSQSLVHSNGNTYLHWYLQKPGQSPQLLIYKVSNRFSGVPDRFSGSGSGTDFTLKISRVEAEDVGVFFCSQSTHVPWTFGQGTKVEIKR
notes: IgG1
B7: in assay [1], the Kd is less than 0.001 nM, the off-rate constant (koff) was less than 1e-07 s⁻¹ and the kon was determined as 1.01e+06 M⁻¹ s⁻¹. In assay [2], the Kd was 0.26 nM, the koff was 0.000135 s⁻¹ and the association rate constant (kon) came out at 519000 M⁻¹ s⁻¹.

B8: anti-hTfR antibody No. 12 (antibody, V domains shown)
VH: EVQLQESGAELARPGTSVKVSCKAAGYVFINYLIEWVKQRPGQGLEWIGVIHSGSGGTNYNDNFKDKATLTRDVSSSTAYMQLSSLTSDDSAVYFCARRNFGNYYFDYWGQGTTLTVSS
VL: DIVLTQSHKFMSTVIGDRVSITCKASHDVKTAVAWYQQTPGQSPKLLTYWSSTRHTGVPDRFTGSGSGTDYTLTISSVQAEDLALYYCQQHFSTPLTFGAGTKLELK
notes: Mouse hybridoma antibody purified on Protein G; also called mouse anti-hTfR antibody No. 12; product of Clone 12 line
Turning to B8, in assay [4], the Kd came to 0.432 nM, the koff was 0.000723 s⁻¹ and the kon is 754000 M⁻¹ s⁻¹. In assay [5], the Kd amounted to 0.249 nM, the koff is 0.000126 s⁻¹ and the kon came to 505000 M⁻¹ s⁻¹.

B9: anti-hTfR antibody No. 3 (antibody, V domains shown)
VH: EVQLQESGAELVRPGTSVKISCKASGYTFMNYWLGWVKQRPGHGLEWIGDIYPGGDYPTYSEKFKVKAILTADTSSSSVYLHLSSLTSEDSAVYFCARSGNYDEVAYWGQGTLVTVST
VL: B7 VL with P8T, S12P, T14S, P15L, Q17D, P18Q, Q50K, V88L, Q105G, V109L
notes: Mouse hybridoma antibody purified on Protein G; also called mouse anti-hTfR antibody No. 3; product of Clone 3 line
For the molecule B9, in assay [4], the Kd is less than 0.001 nM, the koff is less than 1e-07 s⁻¹ and the kon amounted to 653000 M⁻¹ s⁻¹. Further, in assay [5], the dissociation constant Kd was less than 0.001 nM, the koff is less than 1e-07 s⁻¹ and the kon turned out to be 389000 M⁻¹ s⁻¹.

The values are drawn from patent publication US20240262926A1 (published 2024).
